Biological target: hDOP–Renilla luciferase (human, UniProt P41143 1-372)
Test: FRET or BRET

Chain of hDOP–Renilla luciferase (P41143 whole entry): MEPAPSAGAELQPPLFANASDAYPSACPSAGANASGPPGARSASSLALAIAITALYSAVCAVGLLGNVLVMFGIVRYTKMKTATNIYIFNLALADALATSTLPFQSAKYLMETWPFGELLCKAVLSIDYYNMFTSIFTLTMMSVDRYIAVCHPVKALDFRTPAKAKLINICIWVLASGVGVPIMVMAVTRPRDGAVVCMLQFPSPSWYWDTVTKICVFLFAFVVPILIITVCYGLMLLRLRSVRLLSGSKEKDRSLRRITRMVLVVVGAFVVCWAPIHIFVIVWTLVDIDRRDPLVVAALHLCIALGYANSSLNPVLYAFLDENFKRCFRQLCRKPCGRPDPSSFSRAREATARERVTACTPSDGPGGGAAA

B1: hCXCR2–GFP^2 (receptor)
chain: MEDFNMESDSFEDFWKGEDLSNYSYSSTLPPFLLDAAPCEPESLEINKYFVVIIYALVFLLSLLGNSLVMLVILYSRVGRSVTDVYLLNLALADLLFALTLPIWAASKVNGWIFGTFLCKVVSLLKEVNFYSGILLLACISVDRYLAIVHATRTLTQKRYLVKFICLSIWGLSLLLALPVLLFRRTVYSSNVSPACYEDMGNNTANWRMLLRILPQSFGFIVPLLIMLFCYGFTLRTLFKAHMGQKHRAMRVIFAVVLIFLLCWLPYNLVLLADTLMRTQVIQETCERRNHIDRALDATEILGILHSCLNPLIYAFIGQKFRHGLLKILAIHGLISKDSLPKDSRPSFVGSSSGHTSTTL
Which BRET50 does the source give for B1 here?
The BRET50 was 0.34 ± 0.02 [acceptor] to [donor] ratio.
